Experiment: soluble on expression in E. coli; label from the status in PepcDB or PDB records

| Sequence | soluble on expression in E. coli |
| --- | --- |
| MGSDKIHHHHHHMKHAFETLVGEVHAALQAGEQFTLGYSAEQSQFVRFNHAKVRQAGEVSQASAQLRLVRDGRQAEQQVTLSGDVQLDRQRLNVALEQLRQTLPLLALDPYLRLDENAWHSHSLQEPPLPALNEVLALLEREAGDLDLVGIYAAGPVCRGFASSFGAFGWHQANSFNVDWSLFHDNGQAVKANYAGQAWSADDFTARLRQAREQLGFLGRPAVTLKPGTYRAYLAPAAMDEVAGMLCWGGFSAQALATGNSALQRLYNGDARLSPLVSFTEQVSGSLSPAFSDEGAPRLDVPLIQQGEARQRLISARSAAEFELQANGADGYESPCALSLAPGNLASAQILERLGTGLYISNLWYLNYSDLPAARMTGLTRFATFWVEDGQIQGPVSTMRFDDSLYSLLGSQLEDLTQEREMILSTSTYGQRSTGSSHLPGALVKGLTLTL | not soluble |
| MTKKHREGLSLRAFAKKMRVSPNAVVSRFKTGKFDQALFEDGSVNEALATAIWNENPTKRPAPFLAPDGQPRTKIKQVSTEGANEYEIKLERMQVALESEKIALERLRETTVDREEVKRAAREFGRAHRDAMLNFPHRFGASIAAQVGCDAASLIGAIDYYIRKALLEAVHIPVPFHDPHSPELENLQETNNG | not soluble |
| MGSDKIHHHHHHMLPQSFSYKVIRHNMITVAHLINNIVQSGPVIVMRDIIRHMDRDKFHPIVICLRHEEKEDPIVKELRAIDVKCIYLNYSLLSLELQTGRIARKVLSVLRNEKAHILHSHGYHPDLIASHLSRNITSLSTLHNISKDDFTFLKGNLLGSYMNFRYLRSLSKIGHYVAISRAVADYYASHVNKAKERIRIIHNGVDLSFFQIPDEDHQKQLRHRLGLPVSGKIFLVVGRLFSRKDPLIIIRAFKFLLESQKLSGDFYLFFLGDGPLSDACQKEIGDKTHNIRLLGFQKNVHEYMMAADYAITASHSEGFGLNYLEATACGKPVVATDLPPFREICGTGFQDNELFFSVGNQKELEDCILKSLGHTFNPQKVSDIRHHFSAETMSVQYQNYYTELSAPLK | not soluble |
| MLSIKDLHVSVEDKAILRGLSLDVRPGEVHAIMGPNGSGKSTLSATLAGREDYEVTGGTVEFKGKDLLALSPEDRAGEGIFMAFQYPVEIPGVSNQFFLQTALNAVRSYRGQETLDRFDFQDLMEEKIALLKMPEDLLTRSVNVGFSGGEKKRNDILQMAVLEPELCILDESDSGLDIDALKVVADGVNSLRDGKRSFIIVTHYQRILDYIKPDYVHVLYQGRIVKSGDFTLVKQLEEQGYGWLTEQQ | not soluble |
| MGSDKIHHHHHHMPTLTINQRLDALLPKLQDARLLSNRGIGNEIGFYIFDYDAEYEPLVQRYVDRLKLQLTSSPSGFASPSLSEQQDRAGSPIQLILLEIDLYKTILDILSERGVLKKAFELEATKGNAALAKTVAPLVRPDQVIAYIQKKLRGDEQLVIMTGVGASWPLLRSHSILNNLHPVLDKIPLVMFFPGSYDGHELRLFDTFKDDNYYRAFPLIPHQQHHL | not soluble |
| MTTKNKRVLQKCAYREEFKGDMERSTAATSKLPLEVELSRNSKGLIIILSSPSGTGKSSLAKALLKIDNNLRLSISATTRKPRLGEVEGINYYFKTGLEFEELVKQNKFLEYAKIYDNYYGTPKEYVEMLLNQGLDVLFDIDWQGARSIKKNATNVVTIFVLPPNIEVLEQRLRNRATDNEEAIKLRMQLAQNEISHANEYDYVVTNDDFDRTLKKIHAIIVAARDKAF | soluble |
| MTNYKIDFSKGLVPAILQDNQTKQVLMLGYMNQEAFDKTIEDGVVCFYSRSKQRLWTKGETSGHTQRVKDIHVDCDNDTILIDVIPNGPTCHTGSQSCFNTEVPFSVQTLAQTVQDSAQSNNEKSYTKYLLTEGIEKITKKYGEEAFEVVIEAIKGDKKAFVSEVADELYHLFVLMHALGVDFSEIEAELARRHHKRNNFKGERQNIEQWLEHHHHHH | not soluble |
| MGSDKIHHHHHHMGTAKGNITNWTQYNQVLTQRGSLTFWMDDAAIKHWYNQHPSGRQGRSNTYSDSAISTALMIKGVFKLPLRALYGFINSLFRLMDVDLKSPDYSCISKRAKTVEVNYRLRSKGPARHILIDATGLKVFGEGEWKIRKHGKEKRRIWRKMHLAVDADTREIVSAVASLDNVHNSEVIPTLINPLRCKIKQVSADGAYDTKHCYAVLQRKGITAIIPSRKNAGYRRGEQPRNEAVDALKERSVSLVEA | not soluble |
| MAHHHHHHMADGAAMSLSGQRIPLLKPTLSKWSRQLRSDIYDELLKLPLRYALHDFRTLQAHIHAVPATATNASCTAAAGERLPPGVYHASSGLSSASPDAPAYYAVAGRDSAVGYAPPLGPADPVDVIPFFVHRSSNGHLPGKVYSMNAKTLMPAFYMRIQNIEGDMFRFEEELMKIFPTKKIFVRSHSVYVYNVNLDGRAVLHHWLLGLGF | soluble |

— the DeepSol protein solubility set
